Assay results from patent publication US8287851B2, “Use of interleukin 17E for the treatment of cancer” (Lorus Therapeutics Inc., priority 2005, dated 2012).

Experiments:
[1] = tested on: human melanoma C8161 xenograft; assay: Antitumour activity in murine xenograft model of human melanoma C8161; assay type: in vivo, CD-1 athymic nude mice
Description: Human melanoma cell line C8161 was grown in RPMI 1640 medium (Wisent Inc., St. Bruno, QC) with 10% fetal bovine serum, penicillin (100 U/ml), streptomycin ([…]) (Wisent Inc.) at 37° C. under 95% air and 5% CO2, and maintained with routine media changes. Adherent C8161 cells were passaged by trypsinization with 0.025% trypsin. CD-1 athymic nude mice and C57BL/6 (6-8 weeks old, 20-25 g, female) were purchased from Charles River (Montreal, QC).
Human tumour xenografts were established in mice. Briefly, human tumour cells were harvested at approximately 80% confluence in cell culture medium and resuspended in sterile PBS. Ten million tumour cells in 100 μl were subcutaneously implanted into the right flank of CD-1 athymic nude mice. When tumours reached a volume of 50-100 mm^3, mice were randomly separated into two groups of 10 animals and treated with BD-BRM until the endpoint of the experiment. Anti-tumour activity was evaluated and tumour volume was estimated by caliper measurements, using the formula: Length×Width×Height×/2. Tumour weight was determined from tumour tissue surgically excised from the animal on the last day of the experiment. The percentage of inhibition (%)=(mean tumour weight of control animals−mean tumour weight of drug-treated group)/mean tumour weight of controls×100. A p value of ≦0.05 was considered to be statistically significant.
Mice bearing human melanoma C8161 xenograft were treated intraperitoneally with BD-BRM or PBS for 4 weeks. Briefly, human melanoma C8161 cells were subcutaneously injected into the right flank of CD-1 nude mice as described above. The mice were then administered i.p. with 0.2 ml of PBS or BD-BRM daily when tumours reached a volume of 50-100 mm^3.
Recombinant human IL-17E was obtained from PeproTech, Inc., and is present in the preparation as a 33.8 kDA disulphide linked homodimer of two 145 amino acid polypeptide chains. The predominant form of IL-17E in this preparation is the form starting at Tyr 33 of the human sequence provided by GenBank Accession No. AAG40848. Human melanoma C8161 cells (10^6 cells in 100 μl PBS) were subcutaneously implanted into the right flank of CD-1 athymic nude mice. When tumours reached a volume of 50-100 mm^3, mice were randomly separated into two groups of 10 animals and treated as follows:
Group I: 100 μl of PBS intraperitoneally (i.p.) per mouse every other day until the endpoint of the experiment; and
Group II: 0.04 mg/kg of recombinant human IL-17E intraperitoneally (i.p.) every other day until the endpoint of the experiment.
The size of the tumours was measured by caliper measurements throughout the experiment. Tumour volume was determined using the formula (Length×Width×Height/2). T-tests were performed to assess the statistical significance of differences in tumour sizes. A p value of ≦0.05 was considered to be statistically significant.
The effect of human IL-17E dosage on antitumour efficacy was examined using a murine xenograft model of human melanoma tumour growth. Human melanoma C8161 cells (10^6 cells in 100 μl PBS) were subcutaneously implanted into the right flank of CD-1 athymic nude mice. When tumours reached a volume of 50-100 mm^3, mice were randomly separated into four groups of 10 animals and treated as follows:
Group I: 100 μl of PBS subcutaneously (s.c.) per mouse every other day until the endpoint of the experiment; […]

[2] = tested on: protein tyrosine kinase Lyn; assay: Lyn phosphorylation in B cell lymphoma cell line WEHI-231 (Western blot); assay type: cell-based; details: 0.21 μg per 1.5×10^6 WEHI-231 cells, 0, 2, 5 minutes
From the text: The effect of IL-17E on activation of signaling pathways in B cells was examined using the B cell lymphoma cell line WEHI-231 (Lanier L. L., et al. (1981) J. Immunol. 126:626-31). Specifically, the activation status of the protein tyrosine kinase Lyn and the B cell linker protein BLNK (Tsubata, T., et al., (2001) Int Rev Immunol 20:675-8) were examined. An increased level of the phosphorylated forms of these proteins is indicative of activation.
(§1) A total of 1.5×10^6 cells per sample were stimulated in vitro with 0.21 μg of either human IL-17E or murine IL17E at 37° C. Cells were lysed at time points t=0, 2, and 5 minutes in lysis buffer for 30 minutes on ice, followed by centrifugation for 10 minutes. Samples containing approximately 25 μg of protein were separated by SDS-PAGE, followed by transfer to membranes for Western blotting.
For detection of Lyn, Western blots were incubated with rabbit anti-Lyn antibodies, followed by horseradish peroxidase (HRP)-conjugated anti-rabbit antibodies. All blots were exposed to autoradiography film and developed to detect proteins of interest by chemiluminescence.
(§2) To assess equivalence in protein loading among lanes in both experiments, blots were stripped of antibodies and incubated with mouse anti-GAPDH antibodies and HRP-conjugated anti-mouse antibodies, followed by chemiluminescence-based detection.

[3] = tested on: IkappaB alpha (NF-kappaB pathway); assay: NF-kappaB pathway activation: IkappaB alpha phosphorylation in WEHI-231 cells; assay type: cell-based; details: 0.7 μg per 5×10^6 WEHI-231 cells, 0, 2, 5 minutes
Description: The ability of both human and murine interleukin 17E to activate proteins in the Nuclear Factor-kappa B (NF-kappaB) pathway was examined using the B cell lymphoma cell line WEHI-231. […] Activation of the NK-kappaB pathway was assessed by increased phosphorylation of the protein IkappaB alpha. […] The activation of NF-kappa B is associated with the phosphorylation of IkappaB alpha in response to certain stimuli.
as §1, with “5×10^6” for “of 1.5×10^6”, “stimulated” for “stimulated in vitro”, “0.7” for “0.21”, “IL-17E (hIL-17E)” for “IL-17E”, “IL-17E (mIL-17E)” for “IL17E”, “40” for “25”
Blots were incubated with rabbit anti-phospho-IkappaB-alpha antibodies, followed by horesradish peroxidase (HRP)-conjugated anti-rabbit antibodies. Blots were exposed to autoradiography film and developed to detect phosphorylated IkB (at approximately 41 kD) by chemiluminescence.
as §2

B1: murine IL-17E: Murine IL-17E from R&D Systems; predominant form starting at Val 17 of GenBank NP 542767 (protein)
chain: VSLRIQEGCSHLPSCCPSKEQEPPEEWLKWSSASVSPPEPLSHTHHAESCRASKDGPLNSRAISPWSYELDRDLNRVPQDLYHARCLCPHCVSLQTGSHMDPLGNSVPLYHNQTVFYRRPCHGEEGTHRRYCLERRLYRVSLACVCVRPRVMA
antitumour efficacy, comparison of i.p. and i.v. routes of administration ([1]; 0.04 mg/kg murine IL-17E every other day): approximately equivalent antitumour efficacy | tumour growth (tumour weight) vs PBS ([1]; 0.04 mg/kg murine IL-17E intraperitoneally every other day): inhibit tumour growth | tumour growth (tumour weight) vs PBS ([1]; 0.04 mg/kg murine IL-17E intravenously every other day): inhibit tumour growth | levels of phosphorylated Lyn protein [2]: increased | levels of phosphorylated IkappaB alpha (p-IkB-α) [3]: increased

B2: human IL-17E: Recombinant human IL-17E from PeproTech; two 145 amino acid chains, predominant form starting at Tyr 33 of GenBank AAG40848 (protein, listed as Homo sapiens)
chain: YSHWPSCCPSKGQDTSEELLRWSTVPVPPLEPARPNRHPESCRASEDGPLNSRAISPWRYELDRDLNRLPQDLYHARCLCPHCVSLQTGSHMDPRGNSELLYHNQTVFYRRPCHGEKGTHKGYCLERRLYRVSLACVCVRPRVMG
tumour growth (tumour volume) as compared to PBS ([1]; 0.04 mg/kg recombinant human IL-17E i.p. every other day): significantly inhibit tumour growth | antitumour effect with increasing doses ([1]; 0.0018, 0.016, 0.144 mg/kg s.c. every other day): dose-response effect | levels of phosphorylated Lyn protein [2]: increased | levels of phosphorylated IkappaB alpha (p-IkB-α) [3]: increased
